In US7407939 (CUREGENICS, dated 2008):
Where no end group is shown, it is not given here. Side-chain parts run from the residue outwards. [ ]: non-standard residue; d: D form. The star is where a group is joined. SO2‑IQ = 5-aminoethylsulfoneamide isoquinoline, O=S(=O)(NCCN*)c1cccc2cnccc12; S‑IQ = 5-mercaptoaminopropyl isoquinoline; hLeu = CC(C)CC[C@H](N)C(=O)O; GltNH2 = not defined here; Nle = CCCC[C@H](N)C(=O)O; Orn = NCCC[C@H](N)C(=O)O; bGaba = not defined here; Dab = NCC[C@H](N)C(=O)O; Nva = CCC[C@H](N)C(=O)O; Abu = CC[C@H](N)C(=O)O; Dap = NC[C@H](N)C(=O)O; Ph2 = not defined here; GlyNH2 = aminoglycine; Ava = NCCCCC(=O)O; βAla = NCCC(=O)O

molecular target: protein kinase A, catalytic subunit; assay: cell-based or functional assay

| Binder | IC50 PKA |
| --- | --- |
| RPR[Orn]E(SO2‑IQ)SF [PTR 6132] | 12 nM |
| RPRTE(S‑IQ)SF [PTR 6104] | 100 nM |
| RPRTE([βAla-S‑IQ])SF [PTR 6102] | 100 nM |

molecular target: protein kinase A, catalytic subunit; assay: cell-based or functional assay; remark: another data set of the same source

| Binder | Activity PKA |
| --- | --- |
| RPRTS[Abu][hLeu] [TY 60002-73] | > 40 µM |
| RPRVS[Abu]F [TY 60002-61] | > 40 µM |
| RPRTSA[hLeu] [TY 60002-50] | > 40 µM |
| RPRTS[Dap][hLeu] [TY 60002-96] | > 40 µM |

molecular target: protein kinase A, catalytic subunit; assay: cell-based or functional assay; remark: another data set of the same source

| Binder | PKA IC50 |
| --- | --- |
| RPR[Nva]E([βAla-SO2‑IQ])A[hLeu] [PTR 6152] | 5000 nM |
| RPR[Nle]E([βAla-SO2‑IQ])[Dab]F [PTR 6140] | 195 nM |
| RPRTD(SO2‑IQ)SF [PTR 6130] | 53 nM |
| RPR[Nle]E(SO2‑IQ)SF [PTR 6128] | 100 nM |
| RPR[Orn]E(SO2‑IQ)SF [PTR 6132] | 12 nM |
| RPRTE(S‑IQ)SF [PTR 6104] | 100 nM |
| RPR[Orn]E([bGaba-SO2‑IQ])SF (reading uncertain) [PTR 6088] | 1000 nM |
| RPRTE([βAla-SO2‑IQ])SF [PTR 6082] | 200 nM |
| RPR[Nle]E([βAla-SO2‑IQ])S[Nle] [PTR 6096] | 200 nM |
| RPR[Nle]E([βAla-SO2‑IQ])SF [PTR 6086] | 500 nM |
| RPRTE([Ava-SO2‑IQ])SF [PTR 6090] | 600 nM |
| RPRTE(SO2‑IQ)SF [PTR 6016] | 100 nM |
| RPRTE([βAla-S‑IQ])SF [PTR 6102] | 100 nM |

molecular target: protein kinase A, catalytic subunit; assay: cell-based or functional assay; remark: another data set of the same source

| Binder | % Inhibition PKA |
| --- | --- |
| RPRTS[Abu][hLeu] [TY 60002-73] | 8% |
| RPR[Nva][GlyNH2][Dap][Ph2] (reading uncertain) [60006-11B] | 20% |
| RPR[Nva][GlyNH2][Abu][hLeu] [60006-7B] | 24% |
| RPR[Nva][GlyNH2][GltNH2][hLeu] (reading uncertain) [60006-16A] | 21% |
| RPRTS[GlyNH2]F [60005-5] | 40% |
| RPRTSA[hLeu] [TY 60002-50] | 2% |
| RPR[Nva][GlyNH2]A[hLeu] [60006-5A] | 10% |

molecular target: protein kinase A, catalytic subunit; assay: cell-based or functional assay; remark: another data set of the same source

| Binder | IC50 µM PKA |
| --- | --- |
| RPRTS[Abu][hLeu] [TY 60002-73] | 228 µM |
| RPRTS[GlyNH2]F [60005-5] | 7.5 µM |
| RPR[Nva][GlyNH2]A[hLeu] [60006-5A] | 139 µM |
